Data published in article doi:10.1101/2023.09.11.557288, “An explainable language model for antibody specificity prediction using curated influenza hemagglutinin antibodies” (bioRxiv, 2023).

What was measured:
mini-HA #4900 = target: T1, mini-HA #4900 (Influenza A virus H1N1, designed stem …, stabilised); assay: BLI; His-tagged antigen at 0.5 uM loaded on anti-Penta-HIS (HIS1K) biosensors, Fab in solution; room temperature; 1x PBS pH 7.4, 0.01% BSA, 0.002% Tween 20; 1:1 binding model; settings: both partners purified
T1 construct: also called H1 stem-based construct; HA stem-based construct without the HA head domain; not shown: 6xHis, C-terminal, kept

[1] = target: T2, H1N1 A/Solomon Islands/3/2006 (SI06) HA (Influenza A virus, A/Solomon …, UniProt A7Y8I1); assay: as above; settings: both partners purified
T2 construct: also called HA from H1N1 A/Solomon Island/3/2006

B1: 310–18A5 Fab (Fab, V domains shown)
VH: QVQLMQSGTEVKKPGSSVRVSCKASGSTFNSDAISWVRQAPGQGLEWMGGILGMFRTVNYAQRFQGRVTITADELMSTAYMELSGLRFEDTAVYYCARGDGYKPNFLRYWGQGTLITVSS
VL: TLSLSPGERATLSCRASQSVSSTSLAWYQQKFGQAPRLLIYGASNRATGIPDRFSGSGSGTDFTLTISRLEPEDFAVYYCQQYGNSLTFGGGTKVEIK
Kd (mini-HA #4900): 1 nM | Kd [1]: 0.2 nM
